Experimental data published in US20200031892A1, “COMPOSITION COMPRISING NEUREGULIN FOR ORGAN PERFUSION, PRESERVATION OR REPERFUSION, AND USE THEREOF” (Zensun (Shanghai) Science & Technology, Co., Ltd., priority 2007, published 2020).

Experiments:
[1] = system: cardiomyocytes from myocardial infarcted rats; assay: Relaxation of cardiomyocytes isolated from myocardial infarcted rats treated with neuregulin by osmotic pump; type: in vivo, rat; conditions: myocytes from MI rats treated with neuregulin compared with MI rats treated with vehicle
Method: Wistar male rats (Shanghai Animal Center of Chinese Academy of Science), which weighed 200±20 g, were anesthetized by intraperitoneally injecting 100 mg/kg (drug/body weight) of ketamine. The neck and chest were depilated and sanitized. An incision Was made in the middle front neck to expose the tracheae. An 18G catheter overneedle was inserted into the tracheae between the 3rd and 5th cartilage of tracheae. After the needle was drawn out, a plastic cannula was pushed into the trachea 1-2 cm and fixed to connect the Rodent Ventilator (SAR-830/P ventilator—Inspiratory flow rate, 1 ml/100 g/breath; Respiratory rate, 60 breaths/min). Another incision was made on the left front chest. The skin was blunt dissected to expose the fourth and fifth rib, then the fourth rib was cut by elbowed mosquito forceps. The ventilator (as described above) was linked to the cannula and turned on, and the heart was exposed to check the status of lung and heart. The pericardium was rived off to identify the left atria and the pulmonary arterious cone after the heart was exteriorized through the incision. The left ventricle anterior descending coronary artery between them was ligated tight with 6/0 medical suture before the heart was replaced into the thorax. The thoracic wall was stitched. The ventilator was blocked to full fill the lung. […]

[2] = system: patients with stable chronic heart failure; assay: Haemodynamics in patients with stable chronic heart failure after continuous intravenous infusion of neuregulin; type: in vivo, human; conditions: 0.2 μg/kg/hour i.v. infusion for 6 hours
Method: 6 patients with stable chronic heart failure were treated with continuous intravenous infusion of neuregulin at 0.2 μg/kg/hour (drug weight/body weight/hour) for 6 hours. A baseline right heart catheterisation was performed and Swan Ganz catheter left in situ to monitor haemodynamics for 24 hours.

B1: NRG: NRG having the sequence of SEQ ID NO:1, which corresponds to amino acids 177-237 of human NRG-1 (protein, listed as Homo sapiens)
chain: SHLVKCAEKEKTFCVNGGECFMVKDLSNPSRYLCKCPNEFTGDRCQNYVMASFYKAEELYQ
For B1, the “relaxation of myocytes (time to relax to half of the maximum length, FIG. 1)” value [1] was “relax much faster”, the “increase of average cardiac output” value ([2]; 2 hours after infusion vs baseline 3.7±1.0 L/min) was 29.7% and the “systemic vascular resistance (SVR)” value ([2]; after infusion (baseline 1679.3±336.3)) was 1199.5±127.6 dynes-sec-cm^−5. The average cardiac output ([2]; at 2 hours after infusion (baseline 3.7±1.0)) was 4.8 ± 0.8 L/min and the “fall of systemic vascular resistance (SVR)” value ([2]; vs baseline 1679.3±336.3) was 29%.
